From publication PMC2607554, “In-Vitro Helix Opening of M. tuberculosis oriC by DnaA Occurs at Precise Location and Is Inhibited by IciA Like Protein”

Biological target: T1, IciA (rIciA, LysR family) (Mycobacterium tuberculosis H37Rv, UniProt P9WMF5 1-303)
T1 sequence: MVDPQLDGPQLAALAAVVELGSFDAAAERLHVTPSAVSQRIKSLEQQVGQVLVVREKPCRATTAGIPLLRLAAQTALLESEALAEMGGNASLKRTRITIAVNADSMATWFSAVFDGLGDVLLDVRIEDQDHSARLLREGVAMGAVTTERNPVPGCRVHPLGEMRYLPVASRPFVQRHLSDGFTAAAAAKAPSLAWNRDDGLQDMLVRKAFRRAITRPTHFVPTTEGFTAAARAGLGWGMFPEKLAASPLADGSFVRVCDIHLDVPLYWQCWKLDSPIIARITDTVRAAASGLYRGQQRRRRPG
Assay: EMSA; 250-750 ng IciA, 1 ug poly(dI/dC)
Details: protein: recombinant; tags: His tag (pET28a NdeI/HindIII); chain copies: 4; label: 5' 32P; blunt

B1: A+T rich oriC oligonucleotide (Ori F1/Ori R1) (dsDNA)
DNA 1: TTCTTCCGACAACGTTCTTAAAAAAACTTCTCTA
DNA 2: TAGAGAAGTTTTTTTAAGAACGTTGTCGGAAGAA
B1: binds.
